Test results from patent US20180155451A1 (published 2018).

T1: FcγRIIb extracellular domain with C-terminal His tag (human, UniProt P31994 43-217)
T1 construct: extracellular domain; also called FcgRIIb; 2b; not shown: His tag attached to the C terminus
T1 sequence (looked up): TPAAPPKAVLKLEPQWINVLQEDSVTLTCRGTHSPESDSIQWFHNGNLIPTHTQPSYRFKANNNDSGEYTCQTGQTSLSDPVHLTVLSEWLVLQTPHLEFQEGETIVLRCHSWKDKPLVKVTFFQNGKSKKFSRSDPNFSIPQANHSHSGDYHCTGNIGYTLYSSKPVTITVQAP


How the values were obtained:
[1] = target: T1, FcγRIIb extracellular domain with …; assay: SPR (Biacore), relative binding
Experimental: (§1) Analysis of interaction between objective antibody and the FcγR was carried out using Biacore T100 (GE Healthcare). HBS-EP+ (GE Healthcare) was used as the running buffer, and the measurement temperature was set to 25° C. Chips produced by immobilizing the antigen peptide by the amine coupling method to a Series S Sencor Chip CM5 (GE Healthcare), or alternatively, chips produced by allowing preliminarily biotinylated antigen peptides to interact with and immobilize onto a Series S Sensor Chip SA (certified) (GE Healthcare) were used. Antibodies of interest were captured onto an antigen peptide-immobilized chip, and allowed to interact to each FcγR diluted with running buffer. To regenerate and repeatedly use the chip, the antibodies captured on the chip were washed off by reacting 10 mM glycine-HCl, pH 1.5.
(§2) The FcγR-binding activity of each antibody was assessed primarily using as an indicator the FcγR-binding activity and dissociation constant for FcγR.

[2] = target: T2, FcγRIIIa extracellular domain with C-terminal His tag (human, UniProt P08637 17-208); assay: SPR (Biacore), relative binding
T2 construct: extracellular domain; also called FcgRIIIa; 3a; not shown: His tag attached to the C terminus
T2 sequence (P08637 17-208): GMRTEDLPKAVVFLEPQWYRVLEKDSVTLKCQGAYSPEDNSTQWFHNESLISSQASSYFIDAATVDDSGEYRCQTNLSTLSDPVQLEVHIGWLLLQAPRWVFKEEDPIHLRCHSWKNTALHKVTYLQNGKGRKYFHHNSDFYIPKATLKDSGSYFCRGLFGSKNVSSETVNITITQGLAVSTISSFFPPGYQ
Experimental: as §1, §2

[3] = target: T2, FcγRIIIa extracellular domain with …; assay: SPR (Biacore); He/Con_3a divided by He/Con_2b (reference: binding to FcγRIIb)
Experimental: as §1, §2

[4] = target: T3, FcγRIa extracellular domain with C-terminal His tag (human, UniProt P12314 16-292); assay: SPR (Biacore), relative FcγRIa binding, GpH7-B3/GpL16-k0 (HoCon Ab) = 100
T3 construct: extracellular domain; soluble analyte in Biacore; also called FcgRI; CD64
T3 sequence (P12314 16-292): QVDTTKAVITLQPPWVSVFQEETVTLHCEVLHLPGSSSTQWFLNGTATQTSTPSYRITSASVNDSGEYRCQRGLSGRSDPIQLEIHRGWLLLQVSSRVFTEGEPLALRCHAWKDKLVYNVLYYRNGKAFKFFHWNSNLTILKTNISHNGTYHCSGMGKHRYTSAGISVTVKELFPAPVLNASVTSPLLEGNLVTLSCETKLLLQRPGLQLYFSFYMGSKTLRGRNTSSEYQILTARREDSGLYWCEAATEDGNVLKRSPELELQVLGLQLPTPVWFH

Row | Binder | He/Con_2b (IIb binding) [1] | He/Con_3a (IIIa binding) [2] | He_3a/2b (IIIa/IIb) [3] | Ho/Con_1a [4]
1 | GpH7-A5/GpH7-B3 variant S324_05P/GpL16-k0 (antibody, human IgG1, kappa, Heterodimerized IgG1; alteration in one H chain only; also called He Ab) heavy 1: not shown heavy 2: not shown light: DIVMTQSPLSLPVTPGEPASISCQASESLVHSNRNTYLHWYLQKPGQSPQLLIYKVSNRFSGVPDRFSGSGSGTDFTLKISRVEAEDVGVYYCSQNTHVPPTFGQGTKVEIERTVAAPSVFIFPPSDEQLKSGTASVVCLLNNFYPREAKVQWKVDNALQSGNSQESVTEQDSKDSTYSLSSTLTLSKADYEKHKVYACEVTHQGLSSPVTKSFNRGEC | 94.7 % of GpH7-A5/GpH7-B3/GpL16-k0 (=100) | 65.5 % of GpH7-A5/GpH7-B3/GpL16-k0 (=100) | 0.69 ratio | 
2 | GpH7-B3 variant K334_01G/GpL16-k0 (antibody, human IgG1, kappa, homodimerized antibody, mutation in both H chains; also called K334_01G Ho Ab) heavy: not shown light: DIVMTQSPLSLPVTPGEPASISCQASESLVHSNRNTYLHWYLQKPGQSPQLLIYKVSNRFSGVPDRFSGSGSGTDFTLKISRVEAEDVGVYYCSQNTHVPPTFGQGTKVEIERTVAAPSVFIFPPSDEQLKSGTASVVCLLNNFYPREAKVQWKVDNALQSGNSQESVTEQDSKDSTYSLSSTLTLSKADYEKHKVYACEVTHQGLSSPVTKSFNRGEC |  |  |  | 106 % of control
3 | GpH7-B3 variant K326_06M/GpL16-k0 (antibody, human IgG1, kappa, homodimerized antibody, mutation in both H chains; also called K326_06M Ho Ab) heavy: not shown light: DIVMTQSPLSLPVTPGEPASISCQASESLVHSNRNTYLHWYLQKPGQSPQLLIYKVSNRFSGVPDRFSGSGSGTDFTLKISRVEAEDVGVYYCSQNTHVPPTFGQGTKVEIERTVAAPSVFIFPPSDEQLKSGTASVVCLLNNFYPREAKVQWKVDNALQSGNSQESVTEQDSKDSTYSLSSTLTLSKADYEKHKVYACEVTHQGLSSPVTKSFNRGEC |  |  |  | 104 % of control
4 | GpH7-B3 variant I336_16H/GpL16-k0 (antibody, human IgG1, kappa, homodimerized antibody, mutation in both H chains; also called I336_16H Ho Ab) heavy: not shown light: DIVMTQSPLSLPVTPGEPASISCQASESLVHSNRNTYLHWYLQKPGQSPQLLIYKVSNRFSGVPDRFSGSGSGTDFTLKISRVEAEDVGVYYCSQNTHVPPTFGQGTKVEIERTVAAPSVFIFPPSDEQLKSGTASVVCLLNNFYPREAKVQWKVDNALQSGNSQESVTEQDSKDSTYSLSSTLTLSKADYEKHKVYACEVTHQGLSSPVTKSFNRGEC |  |  |  | 114 % of control
5 | GpH7-A5/GpH7-B3 variant Y296_14T/GpL16-k0 (antibody, human IgG1, kappa, Heterodimerized IgG1; alteration in one H chain only; also called He Ab) heavy 1: not shown heavy 2: not shown light: DIVMTQSPLSLPVTPGEPASISCQASESLVHSNRNTYLHWYLQKPGQSPQLLIYKVSNRFSGVPDRFSGSGSGTDFTLKISRVEAEDVGVYYCSQNTHVPPTFGQGTKVEIERTVAAPSVFIFPPSDEQLKSGTASVVCLLNNFYPREAKVQWKVDNALQSGNSQESVTEQDSKDSTYSLSSTLTLSKADYEKHKVYACEVTHQGLSSPVTKSFNRGEC | 88.2 % of GpH7-A5/GpH7-B3/GpL16-k0 (=100) | 64.5 % of GpH7-A5/GpH7-B3/GpL16-k0 (=100) | 0.73 ratio | 
6 | GpH7-A5/GpH7-B3 variant Y296_18N/GpL16-k0 (antibody, human IgG1, kappa, Heterodimerized IgG1; alteration in one H chain only; also called He Ab) heavy 1: not shown heavy 2: not shown light: DIVMTQSPLSLPVTPGEPASISCQASESLVHSNRNTYLHWYLQKPGQSPQLLIYKVSNRFSGVPDRFSGSGSGTDFTLKISRVEAEDVGVYYCSQNTHVPPTFGQGTKVEIERTVAAPSVFIFPPSDEQLKSGTASVVCLLNNFYPREAKVQWKVDNALQSGNSQESVTEQDSKDSTYSLSSTLTLSKADYEKHKVYACEVTHQGLSSPVTKSFNRGEC | 91.5 % of GpH7-A5/GpH7-B3/GpL16-k0 (=100) | 72.1 % of GpH7-A5/GpH7-B3/GpL16-k0 (=100) | 0.79 ratio | 
7 | GpH7-A5/GpH7-B3 variant Y296_01G/GpL16-k0 (antibody, human IgG1, kappa, Heterodimerized IgG1; alteration in one H chain only; also called He Ab) heavy 1: not shown heavy 2: not shown light: DIVMTQSPLSLPVTPGEPASISCQASESLVHSNRNTYLHWYLQKPGQSPQLLIYKVSNRFSGVPDRFSGSGSGTDFTLKISRVEAEDVGVYYCSQNTHVPPTFGQGTKVEIERTVAAPSVFIFPPSDEQLKSGTASVVCLLNNFYPREAKVQWKVDNALQSGNSQESVTEQDSKDSTYSLSSTLTLSKADYEKHKVYACEVTHQGLSSPVTKSFNRGEC | 79.3 % of GpH7-A5/GpH7-B3/GpL16-k0 (=100) | 54.5 % of GpH7-A5/GpH7-B3/GpL16-k0 (=100) | 0.69 ratio | 
8 | GpH7-A5/GpH7-B3 variant Y296_16H/GpL16-k0 (antibody, human IgG1, kappa, Heterodimerized IgG1; alteration in one H chain only; also called He Ab) heavy 1: not shown heavy 2: not shown light: DIVMTQSPLSLPVTPGEPASISCQASESLVHSNRNTYLHWYLQKPGQSPQLLIYKVSNRFSGVPDRFSGSGSGTDFTLKISRVEAEDVGVYYCSQNTHVPPTFGQGTKVEIERTVAAPSVFIFPPSDEQLKSGTASVVCLLNNFYPREAKVQWKVDNALQSGNSQESVTEQDSKDSTYSLSSTLTLSKADYEKHKVYACEVTHQGLSSPVTKSFNRGEC | 92.2 % of GpH7-A5/GpH7-B3/GpL16-k0 (=100) | 73.4 % of GpH7-A5/GpH7-B3/GpL16-k0 (=100) | 0.8 ratio | 
9 | GpH7-B3 variant K326_03V/GpL16-k0 (antibody, human IgG1, kappa, homodimerized antibody, mutation in both H chains; also called K326_03V Ho Ab) heavy: not shown light: DIVMTQSPLSLPVTPGEPASISCQASESLVHSNRNTYLHWYLQKPGQSPQLLIYKVSNRFSGVPDRFSGSGSGTDFTLKISRVEAEDVGVYYCSQNTHVPPTFGQGTKVEIERTVAAPSVFIFPPSDEQLKSGTASVVCLLNNFYPREAKVQWKVDNALQSGNSQESVTEQDSKDSTYSLSSTLTLSKADYEKHKVYACEVTHQGLSSPVTKSFNRGEC |  |  |  | 103 % of control
10 | GpH7-A5/GpH7-B3 variant Y296_13S/GpL16-k0 (antibody, human IgG1, kappa, Heterodimerized IgG1; alteration in one H chain only; also called He Ab) heavy 1: not shown heavy 2: not shown light: DIVMTQSPLSLPVTPGEPASISCQASESLVHSNRNTYLHWYLQKPGQSPQLLIYKVSNRFSGVPDRFSGSGSGTDFTLKISRVEAEDVGVYYCSQNTHVPPTFGQGTKVEIERTVAAPSVFIFPPSDEQLKSGTASVVCLLNNFYPREAKVQWKVDNALQSGNSQESVTEQDSKDSTYSLSSTLTLSKADYEKHKVYACEVTHQGLSSPVTKSFNRGEC | 86.3 % of GpH7-A5/GpH7-B3/GpL16-k0 (=100) | 61.8 % of GpH7-A5/GpH7-B3/GpL16-k0 (=100) | 0.72 ratio | 
11 | GpH7-B3 variant I336_15Y/GpL16-k0 (antibody, human IgG1, kappa, homodimerized antibody, mutation in both H chains; also called I336_15Y Ho Ab) heavy: not shown light: DIVMTQSPLSLPVTPGEPASISCQASESLVHSNRNTYLHWYLQKPGQSPQLLIYKVSNRFSGVPDRFSGSGSGTDFTLKISRVEAEDVGVYYCSQNTHVPPTFGQGTKVEIERTVAAPSVFIFPPSDEQLKSGTASVVCLLNNFYPREAKVQWKVDNALQSGNSQESVTEQDSKDSTYSLSSTLTLSKADYEKHKVYACEVTHQGLSSPVTKSFNRGEC |  |  |  | 110 % of control
12 | GpH7-B3 variant K326_07I/GpL16-k0 (antibody, human IgG1, kappa, homodimerized antibody, mutation in both H chains; also called K326_07I Ho Ab) heavy: not shown light: DIVMTQSPLSLPVTPGEPASISCQASESLVHSNRNTYLHWYLQKPGQSPQLLIYKVSNRFSGVPDRFSGSGSGTDFTLKISRVEAEDVGVYYCSQNTHVPPTFGQGTKVEIERTVAAPSVFIFPPSDEQLKSGTASVVCLLNNFYPREAKVQWKVDNALQSGNSQESVTEQDSKDSTYSLSSTLTLSKADYEKHKVYACEVTHQGLSSPVTKSFNRGEC |  |  |  | 102 % of control
13 | GpH7-B3 variant K326_04F/GpL16-k0 (antibody, human IgG1, kappa, homodimerized antibody, mutation in both H chains; also called K326_04F Ho Ab) heavy: not shown light: DIVMTQSPLSLPVTPGEPASISCQASESLVHSNRNTYLHWYLQKPGQSPQLLIYKVSNRFSGVPDRFSGSGSGTDFTLKISRVEAEDVGVYYCSQNTHVPPTFGQGTKVEIERTVAAPSVFIFPPSDEQLKSGTASVVCLLNNFYPREAKVQWKVDNALQSGNSQESVTEQDSKDSTYSLSSTLTLSKADYEKHKVYACEVTHQGLSSPVTKSFNRGEC |  |  |  | 102 % of control
14 | GpH7-A5/GpH7-B3 variant Y300_10E/GpL16-k0 (antibody, human IgG1, kappa, Heterodimerized IgG1; alteration in one H chain only; also called He Ab) heavy 1: not shown heavy 2: not shown light: DIVMTQSPLSLPVTPGEPASISCQASESLVHSNRNTYLHWYLQKPGQSPQLLIYKVSNRFSGVPDRFSGSGSGTDFTLKISRVEAEDVGVYYCSQNTHVPPTFGQGTKVEIERTVAAPSVFIFPPSDEQLKSGTASVVCLLNNFYPREAKVQWKVDNALQSGNSQESVTEQDSKDSTYSLSSTLTLSKADYEKHKVYACEVTHQGLSSPVTKSFNRGEC | 134 % of GpH7-A5/GpH7-B3/GpL16-k0 (=100) | 104 % of GpH7-A5/GpH7-B3/GpL16-k0 (=100) | 0.78 ratio | 
15 | GpH7-A5/GpH7-B3 variant Y296_11K/GpL16-k0 (antibody, human IgG1, kappa, Heterodimerized IgG1; alteration in one H chain only; also called He Ab) heavy 1: not shown heavy 2: not shown light: DIVMTQSPLSLPVTPGEPASISCQASESLVHSNRNTYLHWYLQKPGQSPQLLIYKVSNRFSGVPDRFSGSGSGTDFTLKISRVEAEDVGVYYCSQNTHVPPTFGQGTKVEIERTVAAPSVFIFPPSDEQLKSGTASVVCLLNNFYPREAKVQWKVDNALQSGNSQESVTEQDSKDSTYSLSSTLTLSKADYEKHKVYACEVTHQGLSSPVTKSFNRGEC | 72.8 % of GpH7-A5/GpH7-B3/GpL16-k0 (=100) | 56.7 % of GpH7-A5/GpH7-B3/GpL16-k0 (=100) | 0.78 ratio | 
